Data: paper PMC6379680, “The Leishmania PABP1–eIF4E4 interface: a novel 5′–3′ interaction architecture for trans-spliced mRNAs” (Nucleic Acids Research, 2018)
Ends that are not written are not given here.

Assays:
[1] = molecular target: eIF4G (Saccharomyces cerevisiae) (UniProt P39935); conditions: cited from earlier work
[2] = molecular target: eIF4E4(iv), an approximately 5 kDa region of the extended N-terminal domain of Leishmania major eIF4E4 (Leishmania major); assay: MST; labelled eIF4E4(iv) held constant, non-labelled PABP1 section varied (16 tubes); Nanotemper Monolith NT.115
[3] = molecular target: full-length Leishmania eIF4G3 (Leishmania major) (UniProt Q4QEK5); assay: fluorescence polarisation; fluorescence anisotropy, PTI QuantaMaster; Alexa-647-labelled eIF4G3, eIF4E4(v)::PABP1(J) added
[4] = molecular target: T1, PABP1(J), the PABC domain of Leishmania major PABP1 prepared as segment J (Leishmania major, UniProt E9AFX7 482-560); assay: MST; FITC-labelled synthetic 14mer peptides with PABP1(J); conditions: both partners purified
T1 construct: 15N,13C-labelled form used in NMR; also called PABP1 PABC domain; PABC1; source: E. coli NiCo21(DE3), synthetic reading frame, purified (cobalt IDA resin, gel filtration); also co-expressed with eIF4E4(v) from a dual expression plasmid
T1 sequence: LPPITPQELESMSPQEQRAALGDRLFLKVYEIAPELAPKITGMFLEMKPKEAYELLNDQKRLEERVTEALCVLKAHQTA

[5] = molecular target: Leishmania major eIF4E4 segment (iv) (Leishmania major); assay: SPR; eIF4E4(iv) immobilised by amine coupling on a Biacore CM5 chip, PABP1(J) passed over, Biacore T200; homogeneous 1:1 binding model
[6] = molecular target: eIF4E4(iv); assay: Microscale thermophoresis of mutated PABP1(J) F525A with eIF4E4(iv); format: binding, Leishmania major
Protocol: Microscale thermophoresis experiments were performed using eIF4E4(iv) or eIF4G3 labelled with a fluorescent tag (Monolith Protein Labeling Kit Red-Maleimide), or the eIF4G3 peptide […] labeled with fluorescein-5-isothiocyanate. The concentration of the fluorescently labelled protein (eIF4E4(iv)) was held constant, while the concentration of non-labelled ligand protein was varied. The experiment was conducted by preparing 16 tubes with various ratios of the interacting labelled/non-labelled proteins. The solutions were introduced into capillaries, which were then loaded into a Nanotemper Monolith NT.115 instrument for measurement. […] In order to maximise confidence in the calculated dissociation constant values (based on kON and kOFF values), two types of model were fitted to the raw data: a homogeneous 1:1 binding model, and a heterogeneous 1:1 two-ligand model. […] Fluorescence anisotropy measurements were performed using a PTI QuantaMaster fluorimeter. […]
We wanted to establish a quantitative understanding of the relative significance of interactions between the Leishmania cap-binding complex factors eIF4E4, eIF4G3 and PABP1 using protein domains or full-length proteins, rather than peptides. […]

[7] = molecular target: T1, PABP1(J), the PABC domain of Leishmania …; assay: MST; labelled eIF4E4(iv) held constant, non-labelled PABP1 section varied (16 tubes); Nanotemper Monolith NT.115; conditions: both partners purified
[8] = system: PABP1; assay: Microscale thermophoresis, Alexa-647-labelled eIF4G3 with PABP1; format: binding, Leishmania; conditions: Alexa-647-labelled eIF4G3 and PABP1
Protocol: (§1) Microscale thermophoresis experiments were performed using eIF4E4(iv) or eIF4G3 labelled with a fluorescent tag (Monolith Protein Labeling Kit Red-Maleimide), or the eIF4G3 peptide […] labeled with fluorescein-5-isothiocyanate. The concentration of the fluorescently labelled protein (eIF4E4(iv)) was held constant, while the concentration of non-labelled ligand protein was varied. The experiment was conducted by preparing 16 tubes with various ratios of the interacting labelled/non-labelled proteins. The solutions were introduced into capillaries, which were then loaded into a Nanotemper Monolith NT.115 instrument for measurement. For the SPR experiments, eIF4E4(iv) was immobilized via amine coupling to a Biacore CM5 sensor chip (GE Healthcare Life Sciences) and titrations against PABP1(J) were performed in a Biacore T200 instrument. In order to maximise confidence in the calculated dissociation constant values (based on kON and kOFF values), two types of model were fitted to the raw data: a homogeneous 1:1 binding model, and a heterogeneous 1:1 two-ligand model. […] Fluorescence anisotropy measurements were performed using a PTI QuantaMaster fluorimeter. […]
(§2) Figure 5. Quantitative characterization of interactions of Leishmania cap-complex proteins. […] Fluorescence anisotropy measurements (C) detected binding of Alexa-647-labelled eIF4G3 to the complex eIF4E4(v):PABP1(J). […]

[9] = molecular target: eIF4E4(v):PABP1(J); assay: Fluorescence anisotropy, Alexa-647-labelled eIF4G3 binding to the complex eIF4E4(v):PABP1(J); set-up: species or system Leishmania; conditions: Alexa-647-labelled eIF4G3, eIF4E4(v)::PABP1(J) added, read-out: KD (average of calculated KD values)
Protocol: as §1, §2

Sequence of eIF4G (Saccharomyces cerevisiae) (P39935 whole entry, the tested form may be a part): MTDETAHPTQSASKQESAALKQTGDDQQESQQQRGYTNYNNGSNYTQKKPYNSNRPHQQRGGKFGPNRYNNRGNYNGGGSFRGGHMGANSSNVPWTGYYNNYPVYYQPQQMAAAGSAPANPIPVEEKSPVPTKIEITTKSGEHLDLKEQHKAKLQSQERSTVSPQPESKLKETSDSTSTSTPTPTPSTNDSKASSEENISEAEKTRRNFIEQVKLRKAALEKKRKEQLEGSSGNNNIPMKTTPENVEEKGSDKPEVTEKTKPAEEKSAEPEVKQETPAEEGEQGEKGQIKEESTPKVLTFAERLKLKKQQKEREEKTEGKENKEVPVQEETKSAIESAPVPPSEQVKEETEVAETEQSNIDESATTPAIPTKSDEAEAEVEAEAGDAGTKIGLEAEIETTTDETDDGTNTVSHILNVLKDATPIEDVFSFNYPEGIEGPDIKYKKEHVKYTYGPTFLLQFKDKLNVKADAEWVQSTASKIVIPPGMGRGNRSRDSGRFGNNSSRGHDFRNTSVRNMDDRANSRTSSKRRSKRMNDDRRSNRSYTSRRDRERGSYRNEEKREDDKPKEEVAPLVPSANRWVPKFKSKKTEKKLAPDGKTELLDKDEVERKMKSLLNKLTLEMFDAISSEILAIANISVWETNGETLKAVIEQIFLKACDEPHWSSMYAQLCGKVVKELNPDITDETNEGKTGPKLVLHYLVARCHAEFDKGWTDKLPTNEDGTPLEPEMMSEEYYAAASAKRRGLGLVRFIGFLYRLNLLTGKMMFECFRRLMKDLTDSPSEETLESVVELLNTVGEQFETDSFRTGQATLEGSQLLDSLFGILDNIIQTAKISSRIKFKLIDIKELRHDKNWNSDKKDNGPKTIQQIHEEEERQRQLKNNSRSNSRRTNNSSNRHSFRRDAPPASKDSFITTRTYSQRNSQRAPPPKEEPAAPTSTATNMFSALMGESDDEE

eIF4E (from UniProt P07260)
Kd [1]: 2.3 nM

PABP1(J) F525A (from UniProt E9AFX7) (domain or fragment)
Kd [2]: 550 nM

heterodimeric complex eIF4E4(v):PABP1(J) (from UniProt E9AFX7 482-560)
Kd [3]: 340 nM

B1: eIF4E4 PAM2-motif FITC-labelled 14mer peptide, E146A (peptide)
peptide: HHMNPNATAFMPGR
modifications: also: FITC label
notes: source: synthetic peptide (Thermo Fisher Scientific, HPLC-purified to 98%)
Kd [4]: 163 ± 16.4 nM

B2: Leishmania major PABP1 segment J (PABC domain) (domain or fragment)
chain: LPPITPQELESMSPQEQRAALGDRLFLKVYEIAPELAPKITGMFLEMKPKEAYELLNDQKRLEERVTEALCVLKAHQTA
modifications: here or on the partner: 13C,15N-labelled in the NMR experiment
Kd [5]: 160 nM

B3: PABP1(J) F525A: PABC domain of Leishmania PABP1 (segment J) with phenylalanine 525 mutated to alanine (protein)
chain: LPPITPQELESMSPQEQRAALGDRLFLKVYEIAPELAPKITGMALEMKPKEAYELLNDQKRLEERVTEALCVLKAHQTA
Kd ([6]; eIF4E4(iv) + PABP1(J) F525A, average of three independent titrations): 550 nM | KD relative to the non-mutated PABP1(J) value ([6]; ratio of KD values): 25 times

B4: eIF4E4(iv), an approximately 5 kDa region of the extended N-terminal domain of Leishmania major eIF4E4 (domain or fragment)
chain: PTRFSPATVPRHHMNPNATEFMPGRRNGPDGGLEALPTSTAD
modifications: also: Alexa 647 label (Red-Maleimide) for MST
Kd [7]: 22 nM

B5: eIF4E4 PAM2-motif FITC-labelled 14mer peptide, M140A (peptide)
peptide: HHANPNATEFMPGR
modifications: also: FITC label
notes: as for B1
Kd [4]: 34.3 ± 1.3 nM

B6: eIF4E4 PAM2-motif FITC-labelled 14mer peptide, WT (peptide)
peptide: HHMNPNATEFMPGR
modifications: also: FITC label
notes: also called 'wild-type' peptide; 14mer eIF4E4 peptide; source: synthetic peptide (Thermo Fisher Scientific, HPLC-purified to 98%)
Kd [4]: 33 ± 0.9 nM

B7: eIF4G3: full-length Leishmania eIF4G3, Alexa-647-labelled (protein)
chain: MQFTVEQIRSVRNNYLEPPYPGFSLDEVVRRRRLTQTKLVRGENAWVAKGTAQTTEEWVQRLLHGTLNKLTEENKDIMIDKLLTKELFATEDIMNMVVNIIFKKALDEPENSKLYAGVCHSLALYEAKVLRDGHKGERPQSQLRDAIISTAQHEFRTLSKELSKMEDKSEEELEYERSNVMRRKRSNMRFIGELYLCTALTHSTMFTVMDLTMRCSDKTGFPSSENIELLAALLNTIGDRLDKNHKKTLDPYFTSLENFNKKSDCPYPPRIRFKIMDLLDLRKRGWGLKPKPVKAALPPSHGKDKKYATAPPPKKGGRDQGSAAAASKSWRDAATTKTGTAAAPAPSADKGLNGRGTSSAAPAANTAALSSSAASTAAATAPAGASFRDEASPQVPLVKFELRVASMFQEWVADRTNDVILHWVDQFNTCDRFFESESELCVAVAQEVIHSACTTTRKDAQREAFSFLVVGLYMIDTEVFDGFASALASAIEDGLLEDVPKFGERFMSMLRLTSTEQETRADVYFDAANVLRLTYNRLESPDDSAVDTLMSFWDRVPLPSTDEENMIRMDLDVVYSLCNPEGVQDGLEKLLSRIIHSMLQMQLMDAEVLDEFLCLDVEDGLCAKVIADYKERFPK
modifications: Alexa 647 label (Monolith Protein Labeling Kit Red-Maleimide) in the fluorescence anisotropy and MST experiments; left off: His12, end not stated, kept
notes: full-length Leishmania eIF4G3, Alexa-647-labelled
binding [8]: no binding could be detected | Kd [9]: 340 nM

B8: eIF4E4 PAM2-motif FITC-labelled 14mer peptide, N143A (peptide)
peptide: HHMNPAATEFMPGR
modifications: also: FITC label
notes: as for B1
Kd [4]: 69.2 ± 4.9 nM

B9: eIF4E4 PAM2-motif FITC-labelled 14mer peptide, F147A (peptide)
peptide: HHMNPNATEAMPGR
modifications: also: FITC label
notes: also called F147A mutant peptide; source: synthetic peptide (Thermo Fisher Scientific, HPLC-purified to 98%)
Kd [4]: 127 ± 13.4 nM

B10: eIF4E4 PAM2-motif FITC-labelled 14mer peptide, M148A (peptide)
peptide: HHMNPNATEFAPGR
modifications: also: FITC label
notes: as for B1
Kd [4]: 62.8 ± 3.1 nM
